Biological target: T1, Cascade (type I-E effector complex) (Escherichia coli, UniProt Q46901;P76632;Q46899;Q46898;Q46897 1-502;1-160;1-363;1-224;1-199)
T1 sequence 1: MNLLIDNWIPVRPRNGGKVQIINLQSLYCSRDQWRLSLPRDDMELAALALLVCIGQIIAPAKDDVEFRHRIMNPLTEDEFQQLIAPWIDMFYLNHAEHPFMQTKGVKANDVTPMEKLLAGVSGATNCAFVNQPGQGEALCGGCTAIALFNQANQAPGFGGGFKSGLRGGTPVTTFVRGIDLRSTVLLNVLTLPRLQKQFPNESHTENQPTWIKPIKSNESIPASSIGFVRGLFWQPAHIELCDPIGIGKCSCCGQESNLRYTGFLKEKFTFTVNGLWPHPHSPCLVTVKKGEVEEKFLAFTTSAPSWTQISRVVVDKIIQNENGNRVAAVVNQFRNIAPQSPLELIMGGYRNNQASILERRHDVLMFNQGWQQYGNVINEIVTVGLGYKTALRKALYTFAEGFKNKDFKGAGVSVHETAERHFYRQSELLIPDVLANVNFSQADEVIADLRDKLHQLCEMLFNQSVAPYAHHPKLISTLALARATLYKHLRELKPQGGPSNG
T1 sequence 2: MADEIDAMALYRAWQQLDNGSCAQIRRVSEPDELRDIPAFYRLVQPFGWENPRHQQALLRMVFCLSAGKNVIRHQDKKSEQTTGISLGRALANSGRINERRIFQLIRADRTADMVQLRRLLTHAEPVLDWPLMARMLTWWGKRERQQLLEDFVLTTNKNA
T1 sequence 3: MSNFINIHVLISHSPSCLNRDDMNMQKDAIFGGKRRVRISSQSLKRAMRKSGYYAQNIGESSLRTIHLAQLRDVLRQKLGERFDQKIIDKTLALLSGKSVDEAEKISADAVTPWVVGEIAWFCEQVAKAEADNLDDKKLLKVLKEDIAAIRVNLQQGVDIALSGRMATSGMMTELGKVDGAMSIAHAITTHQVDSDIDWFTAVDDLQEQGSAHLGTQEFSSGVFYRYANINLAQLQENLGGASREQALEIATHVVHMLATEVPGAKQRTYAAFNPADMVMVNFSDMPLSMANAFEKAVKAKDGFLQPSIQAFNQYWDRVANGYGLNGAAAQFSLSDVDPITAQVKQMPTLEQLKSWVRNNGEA
T1 sequence 4: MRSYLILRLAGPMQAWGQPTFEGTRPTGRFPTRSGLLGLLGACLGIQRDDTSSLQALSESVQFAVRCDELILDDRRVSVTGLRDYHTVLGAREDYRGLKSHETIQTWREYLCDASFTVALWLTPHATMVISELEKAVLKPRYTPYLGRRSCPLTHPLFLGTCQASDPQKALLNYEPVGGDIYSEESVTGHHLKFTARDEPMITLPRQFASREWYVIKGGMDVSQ
T1 sequence 5: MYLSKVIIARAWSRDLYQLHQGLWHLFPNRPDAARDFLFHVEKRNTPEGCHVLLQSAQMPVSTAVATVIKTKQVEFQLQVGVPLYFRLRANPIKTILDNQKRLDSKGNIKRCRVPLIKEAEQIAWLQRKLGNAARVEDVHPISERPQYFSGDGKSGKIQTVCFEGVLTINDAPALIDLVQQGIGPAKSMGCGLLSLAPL
Assay: EMSA

B1: sp8 target, 5-ghmC, with Cascade crRNA sp8 (dsDNA)
DNA 1: TTCATTTGATGCTCGATGAGTTTTTCTAAAAGCTGACGACCGGGTCTCCGCAAGTGGCACTTTTCCATGACCAAAATCCCTTAACGTGAGTTTTCGTT
DNA 2: AACGAAAACTCACGTTAAGGGATTTTGGTCATGGAAAAGTGCCACTTGCGGAGACCCGGTCGTCAGCTTTTAGAAAAACTCATCGAGCATCAAATGAA
modifications: glucosyl-5-hydroxymethylcytosine replacing C; exact positions not stated
B1: no binding.

— PMC5778469
